Legend:
[1] = target: T1, CD18 protein fused with human Fc protein, expressed in transfected 293 cells (UniProt P05107 23-700, limits assumed); test: immunostaining of transfected 293 cells
T1 construct: Negative control for immunostaining; also called control CD18 protein; CD18-human Fc protein; not shown: human Fc
Description: We transfected 293 cells either with BCMA (CD269)-human Fc protein or control CD18 protein fused with human Fc protein and performed immunostaining analysis. […] By IHC, clone 4C8A bound to RPMI8226 cells, myeloma primary tumors and normal human liver, but not to any other normal or other type cancer human tissues, confirming the specificity of BCMA expression. BCMA antibody detected also BCMA in primary multiple myeloma tumors.

[2] = target: T2, BCMA peptide (BCMA extracellular domain protein with a C-terminal deletion of 37 residues) (human); test: ELISA, plate coated with BCMA peptide, HRP anti-mouse IgG and TMB, OD450
T2 construct: also called BCMA shorter peptide; shorter peptide from BCMA extracellular domain
T2 peptide: MLQMAGQCSQNEYFDSL
Procedure: We generated mouse monoclonal anti-human BCMA monoclonal antibody 4C8A using hybridoma. Dilutions of the antibody were incubated in ELISA plates coated with BCMA protein, or BCMA peptide (BCMA extracellular domain protein with a C-terminal deletion of 37 residues), or an irrelevant control CD363 protein. Binding of BCMA mAb 4C8A to the coated protein was detected with HRP-conjugated anti-mouse IgG and TMB substrate. […] The binding of BCMA to BCMA protein was in a dose-dependent manner: decreased with […] in contrast to negative controls (FIG. 4).

[3] = target: T3, BCMA protein (recombinant human BCMA) (human, UniProt Q02223 1-54); test: BLItz biolayer interferometry, anti-mouse IgG biosensor, antibody at 100, 50 and 25 nM
T3 construct: also called BCMA antigen; BCMA recombinant protein
T3 sequence: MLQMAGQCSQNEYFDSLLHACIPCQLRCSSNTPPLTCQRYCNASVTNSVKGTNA
Procedure: The BCMA 4C8A antibody was diluted to 100, 50 and 25 nM and added to the anti-mouse IgG biosensor (ForteBio Corp., Menlo Park, Calif.). After 5 minutes, the biosensor was rinsed free of unbound antibody. Binding was monitored by the BLItz system (ForteBio), and the antibody's dissociation constant was determined with the BLItz software.

T1 sequence (P05107 23-700 limits assumed): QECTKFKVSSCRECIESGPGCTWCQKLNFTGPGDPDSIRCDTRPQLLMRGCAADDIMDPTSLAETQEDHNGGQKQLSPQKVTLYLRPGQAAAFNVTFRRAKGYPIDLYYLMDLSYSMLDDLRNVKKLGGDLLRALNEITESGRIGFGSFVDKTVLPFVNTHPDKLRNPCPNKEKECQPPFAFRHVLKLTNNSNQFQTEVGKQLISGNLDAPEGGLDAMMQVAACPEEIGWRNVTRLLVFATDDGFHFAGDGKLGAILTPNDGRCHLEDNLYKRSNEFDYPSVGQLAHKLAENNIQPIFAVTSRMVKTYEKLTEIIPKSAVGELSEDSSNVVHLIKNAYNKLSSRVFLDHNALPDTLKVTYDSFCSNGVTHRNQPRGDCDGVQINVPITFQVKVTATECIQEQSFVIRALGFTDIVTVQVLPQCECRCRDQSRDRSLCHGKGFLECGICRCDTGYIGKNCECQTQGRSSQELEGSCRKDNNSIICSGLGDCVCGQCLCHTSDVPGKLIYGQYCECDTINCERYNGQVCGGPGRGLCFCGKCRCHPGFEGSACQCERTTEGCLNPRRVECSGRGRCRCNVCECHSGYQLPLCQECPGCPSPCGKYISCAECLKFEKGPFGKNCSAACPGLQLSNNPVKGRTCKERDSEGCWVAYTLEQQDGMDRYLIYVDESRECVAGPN

B1: mouse monoclonal anti-human BCMA antibody clone 4C8A (antibody, mouse IgG1, V domains shown)
VH: VQLQQSGPELVKPGASVKMSCKASGYTFTSYVMHWVKQKPGQGLEWIGYIIPYNDATKYNEKFKGKATLTSDKSSSTAYMELSSLTSEDSAVYYCARYNYDGYFDVWGAGTTVTVSS
VL: DIVMTQSPATLSVTPGDRVSLSCRASQSISDYLHWYQQKSHESPRLLIKYASQSISGIPSRFSGSGSGSDFTLSINSVEPEDVGVYYCQNGHSFPPTFGGGTKLEIK
notes: also called BCMA mAb 4C8A; BCMA 4C8A antibody
With B1 the binding result [1] was “no binding”, the binding result [2] was “no binding” and the Kd [3] was ~2.8 nM.

Reference: US20210015870A1 (PROMAB BIOTECHNOLOGIES, published 2021)
